From publication PMC3143253 come the findings set out here.

What is called Kd is the constant that tells how readily two partners part at equilibrium. What is called stoichiometry N is the number of molecules, sites or subunits per partner or assembly.

Read-outs that look alike come from different tables or passages of the source.

Test [1] has as its target TMR-conjugated CLS-S329C, reconstituted in liposomes (human). The experiment in a line: other fluorescence titration.
The target in test [2] is calmodulin (UniProt P0DP23). The experiment in a line: ITC. (In general: ITC needs no label: the signal is the heat of the interaction.)
Test [3] addresses IAEDANS-labeled CaM-K75C (UniProt P0DP23). The experiment in a line: other fluorescence titration.
The target is the same in test [4]. In words: other fluorescence titration. The source holds these as a separate data set.

In turn, “calmodulin (from UniProt P0DP23 1-149) (natural protein)” showed a Kd in test [1] of 1.7 µM.
In test [2], “ARR18 peptide (entire cytoplasmic domain of human L-selectin)” registered a Ka of 204000 M⁻¹, a Kd of 4.9 µM, a dH of -3.22 kJ/mol and a stoichiometry N of 0.92. Also, in test [3], the Kd was 2.1 µM. In addition, the Kd in test [4] turned out to be 2.5 µM.
